The labels stand for the following.
B1: Nb2 (VHH)
VHH: QVQLVESGGGLVQAGGSLRLSCAASGRTFSIYNMGWFRQAPGKEREFVIHMNWSNGNTATAASVKDRFTISRDNAKNTVYLQMSSLKPEDTAVYYCHATTNDYDYWGQGTQVTVSS
B2: Nb91 (VHH)
VHH: HVQLVESGGGLVQPGGSLRLSCAASGLTLNDYAIGWFRQAPGKEREGVSCISSSDGTTYYADSVKGRFTISRDNAKNTVYLQMNSLKPEDTAVYYCATDIAPFYCSWPLRTRLVEYWGQGTQVTVSS
B3: Nb90 (VHH)
VHH: HVQLVESGGGLVQAGGSLRLSCAVSGRTVSSYVMGWFRQAPGKEREFVAGIGRTGMTITADSVKGRFTISRDNAKNLVYLQMNSLKSEDTAVYWCAAGVRDFAPRIDSYDYWGQGTQVTVSS
B4: Nb46 (VHH)
VHH: QVQLVESGGGLVQAGGSLRLSCAVSGSTLGINAIGWYRQPPGKQRELVASISSLGTTLYAESVKGRFAISRDNAKNTGYLQMNSLKPDDTAVYYCNMRTPYMRDYWGQGTQVTVSS
B5: Nb3 (VHH)
VHH: HVQLVESGGGLVQAGGSLRLSCVASGSGFEPNAMGWYRQAPGKQRELVAGITSGGNTNYADSVKGRFTISRDNVKNTVYLQMNSLKPEDTAVYYCNAVAPRINPRGSPTNYWGQGTQVTVSS
B6: Nb4 (VHH)
VHH: QVQLVESGGGLVQAGGSLRLSCVASGSGFEPNAMGWYRQAPGKQRELVAGITSGGNANYADSVKGRFTISRDNVKNTVYLQMNSLKPEDTAVYYCNAVGPRFNPRGSPTNYWGQGTQVTVSS
B7: Nb68 (VHH)
VHH: QVQLVESGGGLVQAGGSLRLSCAASGGTLRSYNMGWFRQGPGKEREFVAAISWTGLGTYYGDSVKGRFTISRDVIKNTLYLQMDSLKPEDTAIYYCAADSSTSRLHSAGSDYRYWGQGTQVTVSS
B8: Nb18 (VHH)
VHH: DVQLVESGGGLVQAGGSLRLSCAASGRTFSSYNVGWFRQAPGKEREFVAFIRWSGTSTYYADSVKGRFTISRDNAKNTVYLQMNSLKPEDTAVYYCAATSRTMIHTSQAMPINWDYWGQGTQVTVSS
B9: Nb84 (VHH)
VHH: DVQLVESGGGLVQAGGSLRLSCAASGRTFSSYSMGWFRQAPGKEREFVAFIRWSGTSTYYADSVKGRFTISRDNAKNTVYLQMNSLKPDDTAVYYCAASSRTMNTISQTMRINWDYWGQGTQVTVSS
B10: Nb100 (VHH)
VHH: EVQLVESGGGLVQAGGSLRLSCAASGLTFSSYNMGWFRQAPGKEREFVAFIRWSGTSTYYADSVKGRFTISRDTAKNTVYLQMNSLKLEDTAVYYCAATSRTMIHTSQTMRINWDYWGQGTQVTVSS
B11: Nb80 (VHH)
VHH: HVQLVESGGGLVQPGGSLRLSCAASGNFFLINVMSWWRQAPGNEHELHELVATITSDGRTNYGDAVQGRFTISRDNAKNTLYLQMNSLKPEDTAVYYCYAQGQGNREYWGQGTQVTVSS
B12: Nb37 (VHH)
VHH: QVQLVESGGGLVQTGGSLRLSCAASGRTFSNYVMGWFRQAPGKEREFVSSIEWNSENTFYANSVKGRFTISRDNAKNTVYLQMNSLKAEDTAVYYCAADRGSSYYYTRASEYTYWGQGTQVTVSS
B13: Nb92 (VHH)
VHH: HVQLVESGGGLVQAGGSLRLSCAASGRTFSAYGMGWFRQAPGKEREFVAGIARSGSEYYGDSVKGRFTISRDNAKNTVYLQMASLKAEDTGVYYCAADPTILYHALSQRTQNYRYWGPGTQVTVSS
B14: Nb39 (VHH)
VHH: QVQLVESGGGLVQAGGSLRLSCAASGRTFRFSAIDWYRQAPGQQREFVASISTSGRISYGHFVKGRFTISRDNAKNTMYLQMNSLKPEDTAVYYCHLAQPDVFGGGDYWGQGTQVTVSS
B15: Nb41 (VHH)
VHH: DVQLVESGGGLVQAGGSLRLSCAASGFTFSNYVMYWGRQAPGKGREWVSGIDSDGSDTAYASSVKGRFTISRDNAKKTLYLQMNDLKPEDTALYYCVKSKDRYGSPWTRSEFEDYWGQGTQVTVSS
B16: Nb58 (VHH)
VHH: QVQLVESGGGLVQAGGSLRLSCAASGRDFSSTVMGWFRQAPGKERELVAWMTVTYDITYYADSVKGRFTISKDNAKNTVYLQANSLKPDDTAVYYCASGALRVGSFSPDYWGQGTQVTVSS
B17: Nb10 (VHH)
VHH: DVQLVESGGGLVQAGGSLKLSCTASESTFNFNHIDWYRQAPGKQRESVAVITNTDVTNYADSVKGRFTISRDNAKNTVYLQMNSLKPEDTAVYLCNAWRFGPTGVKVDYWGQGTQVTVSS
B18: Nb12 (VHH)
VHH: HVQLVESGGGLVQAGGSLRLTCAASGGTFSTSTMDMGWFRQAPGKEREFVAVDSWNDGRAYYADSVKGRFTISRDSAKTTLYLQMNSLKPEDTAVYYCAARTERGVYDYWGRGTQVTVSS
B19: Nb15 (VHH)
VHH: EVQLVESGGGLVAAGGSLRLSCVPSTNIFSANAMGWYRQAPGKQRELVASITSGGNTNYADSVKGRFTISRDNADTVILQMNSLKPEDTAVYYCKGTAYSTTYNSVRDYWGQGTQVTVSS
B20: Nb55 (VHH)
VHH: DVQLVESGGGLVQAGGSLRLSCAASGRTFGSTMAWFRQAPGKERDFVAAITWSADRISYADSVKGRFTISRDNDKNIVHLQMNSLKPEDTAVYVCAARASSNTYDDPRSFAFWGQGTQVTVSS
B21: Nb43 (VHH)
VHH: EVQLVESGGGLVQAGGSLRLTCAASGRTFSSSTMDMGWFRQAPGKEREFVAVDAWNDGRTYYADSVKGRFTISRDNAKNTLYLQMNSLKPEDTAIYYCNLRQGCSYNGCDEYWGQGTQVTVSS
B22: Nb60 (VHH)
VHH: HVQLVESGGGLVQAGDSLRLSCAASERTNINYAMGWFRQAPGKERDFVAAIGWNGSIIKYAESVKGRFTISRDDAKNTVSLQMNSLKPEDTAVYYCAARIGSIANLQPREYEFAYWGQGTQVTVSS
B23: Nb76 (VHH)
VHH: DVQLVESGGGLVQAGGSLRLSCAVSGRTFSISTMGWFRQAPGKERLFVAGITWHDGSTNYADSVKGRFTISRDNAKNTVYLQMNSLKPEDTALYYCAARKSINYVQEYDYWGRGTQVTVSS
B24: Nb63 (VHH)
VHH: QVQLVESGGGLVQAGGSLRLSCVASGSGFEPNAMGWYRQAPGKQRELVAGITSGGNANYADSVKGRFTISRDNVKNTVYLQMNSLKPEDTAVYYCQGPACSGSGCRNYWGQGTQVTVSS
B25: Nb6 (VHH)
VHH: HVQLVESGGGLVQAGGSLRLSCAASGRTFSTHATGWFRQAPGKEREFLATSVWLDDISRDSTYYAESVKGRFSISRDNAKDTVYLQMNSLKPEDTAVYYCAVKQRVGPGIMSAPTYDYWGQGTQVTVSS
B26: Nb42 (VHH)
VHH: HVQLVESGGGLVQAGESLRLSCVASGSIFSINAMGWFRQAPGKQRELVASISNIGTTIYAESVKGRFTISRDNAKNTADLQMNSLKPEDTAIYYCNLRQGCSYNGCDEYWGQGTQVTVSS
B27: Nb74 (VHH)
VHH: HVQLVESGGGLVQAGGSLRLSCAASGRTFSSHAMAWFRQAPGKEREFVAGISWSGPYYVDSVKGRFTISTDNAKNTVYLQMNSLTPEDTAVYYCASSRGPNLYPHIGDVEYWGQGTQVTVSS
B28: Nb24 (VHH)
VHH: QVQLVESGGGLVQAGGSLRLTCAASGGTFSTSTMDMGWFRQAPGKEREFVALDSWNGGRTYYADSVKGRFTISRDNAKNTLYLQMNSLKPEDTAVYYCAADTYSNYEKDDSWGYWGQGTQVTVSS
B29: Nb32 (VHH)
VHH: DVQLVESGGGLVQAGGSLRLSCAASGRTFSSDTMDMGWFRQAPGKEREFVALHSWNGGKTYYADSVKGRFTISRDNAKNTLYLQMNNLKPEDTAVYYCAAETYTLYEKDSSWGYWGQGTQVTVSS
B30: Nb26 (VHH)
VHH: HVQLVESGGGLVQAGGSLRLTCAASGRTFSISTMDMGWFRQAPGKEREFVAADAWNDGRTYYADSVKGRFTISRDNAKNTLYLQMNSLKPEDTAVYYCTADTYSNYKKDDSWGYWGQGTQVTVSS
B31: Nb29 (VHH)
VHH: HVQLVESGGGLVQAGGSLRLTCAASGGTFSTSTMDMGWFRQAPGKEREFVAVDSWNDGRAYYADSVKGRFTISRDNAKNTLYLQMNSLKPEDTAVYYCAAETYSNYEKAYSWGYWGQGTQVTVSS
B32: Nb62 (VHH)
VHH: HVQLVESGGGLVQAGGSLRLTCAASGRTFSSSTMDMGWFRQAPGKEREFVAVDAWNDGRTYYADSVKGRFTISRDNAKNTLYLQMNSLKPGDTAVYYCHAVDVSVGGDYWGQGTQVTVSS

This test has as its target SARS-CoV-2 spike receptor-binding domain (RBD) (SARS-CoV-2, UniProt P0DTC2 319-541). Description: indirect ELISA, RBD coated on plate, 4PL fit. Background: An ELISA detects its analyte on a solid surface through an enzyme-linked reagent.
Regarding B1, the ELISA affinity was determined as 4.82 nM.
In the case of B2 it was 1.28 nM.
In the case of B3 it was 4.03 nM.
Next, B4: 25.9 nM; B5: 0.48 nM.
The molecule B6 displayed an ELISA affinity of 0.67 nM.
Next, B7: 6.11 nM.
As for B8, the ELISA affinity came to 0.57 nM.
Molecule B9 showed an ELISA affinity of 0.53 nM.
Molecule B10 returned an ELISA affinity of 1.04 nM.
In the case of B11 it was 5.09 nM; in that of B12, 0.38 nM.
Turning to B13, the ELISA affinity was determined as 4.92 nM.
Next, B14: 1.49 nM.
As to B15, the ELISA affinity amounted to 0.2 nM.
Next, B16: 2.68 nM; B17: 0.24 nM.
B18: the ELISA affinity was determined as 539 nM.
In the case of B19 it was 0.47 nM.
Next, B20: 2.24 nM; B21: 664 nM; B22: 138 nM.
In the case of B23 it was 0.17 nM; in that of B24, 0.84 nM; in that of B25, 0.57 nM.
Turning to B26, the ELISA affinity came to 0.66 nM.
Next, B27: 67.1 nM; B28: 0.77 nM; B29: 2.17 nM.
Next, B30: 0.92 nM.
Next, B31: 1.25 nM.
In turn, B32 yielded an ELISA affinity of 85.7 nM.

The values are drawn from US20240043505A1 (UNIVERSITY OF PITTSBURGH OF THE COMMONWEALTH SYSTEM OF …, published 2024).
